Test results from the supplement of paper PMC7125110.
± gives the standard error. This sample holds only a part of the variants without activity.

B1: glmS ribozyme (parent)
chain: AUAAAAGCGCCAGAACUACAGAAAUGUAGUUGACGAGGAGGAGGUUUAUCGAAUUUUCGGCGGAUGCCUCCAAA

Experiments:
Details in all cases: with glucosamine-6-phosphate
glucosamine-6-phosphate [1] = variants of: B1; experiment: self-cleavage kobs at 40 uM GlcN6P; higher = faster cleavage; RNA array
Outline: (§1)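 kcat and KM were obtained from weighted Michaelis–Menten fits across concentrations of kobs values. Those came from one- or two-exponential decay fits to per-tile medians normalised to baseline and to non-cleaving reference variants. The variants were barcoded ribozymes transcribed in situ by E. coli RNA polymerase on sequenced MiSeq chips and tracked through a hybridised Cy3 probe at 37 °C, with 40 μM to 10 mM glucosamine-6-phosphate in HEPES/KCl/Mg(OAc)2 buffer flowed in.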

glucosamine-6-phosphate [2] = variants of: B1; experiment: self-cleavage kobs at 2500 uM GlcN6P; higher = faster cleavage; RNA array
Outline: as §1

glucosamine-6-phosphate [3] = variants of: B1; experiment: self-cleavage kobs at 10000 uM GlcN6P; higher = faster cleavage; RNA array
Outline: as §1

glucosamine-6-phosphate [4] = variants of: B1; experiment: self-cleavage kobs at 160 uM GlcN6P; higher = faster cleavage; RNA array
Outline: as §1

glucosamine-6-phosphate [5] = variants of: B1; experiment: self-cleavage kobs at 640 uM GlcN6P; higher = faster cleavage; RNA array
Outline: as §1

G32C G40A A53C
self-cleavage kobs at 40 uM GlcN6P (glucosamine-6-phosphate [1]): < 1e-05 s⁻¹
self-cleavage kobs at 2500 uM GlcN6P (glucosamine-6-phosphate [2]): < 1e-05 s⁻¹
self-cleavage kobs at 10000 uM GlcN6P (glucosamine-6-phosphate [3]): < 1e-05 s⁻¹

G40U U56A
self-cleavage kobs at 40 uM GlcN6P (glucosamine-6-phosphate [1]): 6.75e-05 ± 1.3e-05 s⁻¹
self-cleavage kobs at 160 uM GlcN6P (glucosamine-6-phosphate [4]): 0.000124 ± 3.2e-05 s⁻¹
self-cleavage kobs at 640 uM GlcN6P (glucosamine-6-phosphate [5]): 0.000381 ± 4.4e-05 s⁻¹
self-cleavage kobs at 2500 uM GlcN6P (glucosamine-6-phosphate [2]): 0.00116 ± 0.00022 s⁻¹
self-cleavage kobs at 10000 uM GlcN6P (glucosamine-6-phosphate [3]): 0.00344 ± 0.00064 s⁻¹

G13A U47A G60U
self-cleavage kobs at 40 uM GlcN6P (glucosamine-6-phosphate [1]): < 1e-05 s⁻¹
self-cleavage kobs at 160 uM GlcN6P (glucosamine-6-phosphate [4]): < 1e-05 s⁻¹
self-cleavage kobs at 640 uM GlcN6P (glucosamine-6-phosphate [5]): < 1e-05 s⁻¹
self-cleavage kobs at 10000 uM GlcN6P (glucosamine-6-phosphate [3]): < 1e-05 s⁻¹

G13C C50G G66C
self-cleavage kobs at 40 uM GlcN6P (glucosamine-6-phosphate [1]): 3.47e-05 ± 1.6e-05 s⁻¹

A12G G32A A33U C70G
self-cleavage kobs at 40 uM GlcN6P (glucosamine-6-phosphate [1]): < 1e-05 s⁻¹
self-cleavage kobs at 160 uM GlcN6P (glucosamine-6-phosphate [4]): < 1e-05 s⁻¹
self-cleavage kobs at 640 uM GlcN6P (glucosamine-6-phosphate [5]): < 1e-05 s⁻¹

U69C C71G
self-cleavage kobs at 40 uM GlcN6P (glucosamine-6-phosphate [1]): 3.93e-05 ± 1.3e-05 s⁻¹
self-cleavage kobs at 160 uM GlcN6P (glucosamine-6-phosphate [4]): 0.000225 ± 0.00011 s⁻¹
self-cleavage kobs at 640 uM GlcN6P (glucosamine-6-phosphate [5]): 6.76e-05 ± 1.6e-05 s⁻¹
self-cleavage kobs at 2500 uM GlcN6P (glucosamine-6-phosphate [2]): 7.01e-05 ± 1.5e-05 s⁻¹
self-cleavage kobs at 10000 uM GlcN6P (glucosamine-6-phosphate [3]): 6.79e-05 ± 9e-06 s⁻¹

A14G C50G C68U U69A C71G
self-cleavage kobs at 40 uM GlcN6P (glucosamine-6-phosphate [1]): 0.000105 ± 1.7e-05 s⁻¹
self-cleavage kobs at 2500 uM GlcN6P (glucosamine-6-phosphate [2]): 0.000379 ± 8.1e-05 s⁻¹
self-cleavage kobs at 10000 uM GlcN6P (glucosamine-6-phosphate [3]): 0.000199 ± 5.1e-05 s⁻¹

A6U C16U U47A G63U
self-cleavage kobs at 40 uM GlcN6P (glucosamine-6-phosphate [1]): < 1e-05 s⁻¹
self-cleavage kobs at 10000 uM GlcN6P (glucosamine-6-phosphate [3]): < 1e-05 s⁻¹

A33G G37U U46G A52G G62A
self-cleavage kobs at 40 uM GlcN6P (glucosamine-6-phosphate [1]): < 1e-05 s⁻¹

G40U C61A G63C
self-cleavage kobs at 40 uM GlcN6P (glucosamine-6-phosphate [1]): < 1e-05 s⁻¹
self-cleavage kobs at 160 uM GlcN6P (glucosamine-6-phosphate [4]): < 1e-05 s⁻¹
self-cleavage kobs at 2500 uM GlcN6P (glucosamine-6-phosphate [2]): < 1e-05 s⁻¹

G38A G51U A52U
self-cleavage kobs at 40 uM GlcN6P (glucosamine-6-phosphate [1]): < 1e-05 s⁻¹
self-cleavage kobs at 10000 uM GlcN6P (glucosamine-6-phosphate [3]): < 1e-05 s⁻¹

G9U A15C G44C U47C
self-cleavage kobs at 40 uM GlcN6P (glucosamine-6-phosphate [1]): < 1e-05 s⁻¹
self-cleavage kobs at 2500 uM GlcN6P (glucosamine-6-phosphate [2]): < 1e-05 s⁻¹
self-cleavage kobs at 10000 uM GlcN6P (glucosamine-6-phosphate [3]): < 1e-05 s⁻¹

A6G A42U A64G
self-cleavage kobs at 40 uM GlcN6P (glucosamine-6-phosphate [1]): < 1e-05 s⁻¹
self-cleavage kobs at 640 uM GlcN6P (glucosamine-6-phosphate [5]): < 1e-05 s⁻¹
self-cleavage kobs at 2500 uM GlcN6P (glucosamine-6-phosphate [2]): < 1e-05 s⁻¹
self-cleavage kobs at 10000 uM GlcN6P (glucosamine-6-phosphate [3]): < 1e-05 s⁻¹

U30C A48C
self-cleavage kobs at 40 uM GlcN6P (glucosamine-6-phosphate [1]): < 1e-05 s⁻¹
self-cleavage kobs at 160 uM GlcN6P (glucosamine-6-phosphate [4]): < 1e-05 s⁻¹
self-cleavage kobs at 640 uM GlcN6P (glucosamine-6-phosphate [5]): < 1e-05 s⁻¹
self-cleavage kobs at 2500 uM GlcN6P (glucosamine-6-phosphate [2]): < 1e-05 s⁻¹
self-cleavage kobs at 10000 uM GlcN6P (glucosamine-6-phosphate [3]): < 1e-05 s⁻¹

G32U G43C
self-cleavage kobs at 40 uM GlcN6P (glucosamine-6-phosphate [1]): < 1e-05 s⁻¹
self-cleavage kobs at 160 uM GlcN6P (glucosamine-6-phosphate [4]): < 1e-05 s⁻¹
self-cleavage kobs at 640 uM GlcN6P (glucosamine-6-phosphate [5]): < 1e-05 s⁻¹
self-cleavage kobs at 2500 uM GlcN6P (glucosamine-6-phosphate [2]): < 1e-05 s⁻¹

C11A A48C U55C C61A
self-cleavage kobs at 40 uM GlcN6P (glucosamine-6-phosphate [1]): < 1e-05 s⁻¹

C11G U69G
self-cleavage kobs at 40 uM GlcN6P (glucosamine-6-phosphate [1]): 3.62e-05 ± 1.4e-05 s⁻¹
self-cleavage kobs at 160 uM GlcN6P (glucosamine-6-phosphate [4]): 0.000125 ± 2.3e-05 s⁻¹
self-cleavage kobs at 640 uM GlcN6P (glucosamine-6-phosphate [5]): 0.000184 ± 3.4e-05 s⁻¹
self-cleavage kobs at 2500 uM GlcN6P (glucosamine-6-phosphate [2]): 8.88e-05 ± 1.6e-05 s⁻¹

A6G A33U C58G C67U C71A
self-cleavage kobs at 40 uM GlcN6P (glucosamine-6-phosphate [1]): 5.47e-05 ± 2.5e-05 s⁻¹
self-cleavage kobs at 160 uM GlcN6P (glucosamine-6-phosphate [4]): 9.68e-05 ± 2.9e-05 s⁻¹
self-cleavage kobs at 640 uM GlcN6P (glucosamine-6-phosphate [5]): 0.000593 ± 0.00019 s⁻¹
self-cleavage kobs at 2500 uM GlcN6P (glucosamine-6-phosphate [2]): 0.000109 ± 4.9e-05 s⁻¹

G60U C68G
self-cleavage kobs at 40 uM GlcN6P (glucosamine-6-phosphate [1]): < 1e-05 s⁻¹
self-cleavage kobs at 160 uM GlcN6P (glucosamine-6-phosphate [4]): < 1e-05 s⁻¹
self-cleavage kobs at 640 uM GlcN6P (glucosamine-6-phosphate [5]): < 1e-05 s⁻¹
self-cleavage kobs at 2500 uM GlcN6P (glucosamine-6-phosphate [2]): < 1e-05 s⁻¹
self-cleavage kobs at 10000 uM GlcN6P (glucosamine-6-phosphate [3]): < 1e-05 s⁻¹

G32C U56C
self-cleavage kobs at 40 uM GlcN6P (glucosamine-6-phosphate [1]): < 1e-05 s⁻¹
self-cleavage kobs at 160 uM GlcN6P (glucosamine-6-phosphate [4]): < 1e-05 s⁻¹
self-cleavage kobs at 640 uM GlcN6P (glucosamine-6-phosphate [5]): < 1e-05 s⁻¹
